This note sets out measurements from US20130095097A1 (EMERGENT PRODUCT DEVELOPMENT SEATTLE, published 2013).

The target of assay [1] is T1, CD28 mIg (UniProt P10747 19-152). Nature of the assay: SPR, CD28-mIgG immobilized, 1:1 Langmuir model, ka (I). How it is done:
(§1) Surface plasmon resonance (SPR) measurements were performed on a Biacore T100 SPR using HBS-P+ (GE Healthcare) as a running buffer. CD28-mIgG (25 μg/mL in 10 mM sodium acetate, pH 4.0) was directly immobilized onto a CM5 chip using standard amine coupling chemistry (Biacore Amine Coupling Kit, GE Healthcare), with final immobilization levels between 800 and 1900 Ru (resonance units). 2E12 binding domain constructs were injected at 25° C. or 37° C. for 150 seconds at a flow rate of 30 μl/min in a series of concentrations from 10 nM to 1 μM. Dissociation was monitored for 1200 seconds, and the surface was regenerated by injecting 50 mM NaOH for 60 seconds. Binding interactions with the surface were stable through at least 60 regeneration cycles. Data were analyzed using BiaEvaluation for the T100 software (version 2.0, GE Healthcare).
(§2) Surface plasmon resonance was used to measure binding of immobilized CD28 by 2E12 binding domain constructs. […] Binding kinetics of the bivalent 2E12 constructs (e.g., 2E12 mAb, FIGS. 27A-27B) to immobilized CD28 could not be fit to a 1:1 Langmuir binding model, but could be fit with high accuracy to a bivalent analyte binding model (Table 5). Equilibrium dissociation constants (1(D) could be calculated with high accuracy for each construct by fitting the observed response at saturation to a steady-state equilibrium model (Table 5).
(In SPR one partner is held on a chip, and binding of the other changes the refractive index at the surface.)

The target of assay [2] is T1, CD28 mIg. Nature of the assay: SPR, CD28-mIgG immobilized, kinetic KD (kd (I)/ka (I)). How it is done:
as §1, §2

The target of assay [3] is T1, CD28 mIg. Nature of the assay: SPR, CD28-mIgG immobilized, 1:1 Langmuir model, kd (I). How it is done:
as §1, §2

Assay [4] addresses T1, CD28 mIg. Nature of the assay: SPR, CD28-mIgG immobilized, steady-state equilibrium KD. The method, then: as §1, §2
In assay [5] the target is T2, CD28 mIg (UniProt P10747 19-152).
T2 construct: Coated on ELISA plates and amine-coupled to a CM5 chip; also called CD28-mIgG; immobilized CD28
Nature of the assay: SPR, CD28-mIgG immobilized; reference 2E12 SMIP (M0039). The method, then: as §1, §2

Assay [6] has as its target T2, CD28 mIg. Nature of the assay: SPR, CD28-mIgG immobilized, bivalent analyte model, second on rate (avidity). The arrangement: unit not given here. How it is done:
as §1, §2

The target of assay [7] is T2, CD28 mIg. Nature of the assay: SPR, CD28-mIgG immobilized, steady-state equilibrium KD. The method, then:
as §1, §2

The target of assay [8] is T2, CD28 mIg. Nature of the assay: SPR, CD28-mIgG immobilized, bivalent analyte model, first off rate kd (I). The method, then: as §1, §2
For assay [9], the target named is T2, CD28 mIg. Nature of the assay: SPR, CD28-mIgG immobilized, kinetic KD, bivalent analyte model, initial binding at the first site only. The method, then: as §1, §2
Assay [10] concerns the target T2, CD28 mIg. Nature of the assay: SPR, CD28-mIgG immobilized, bivalent analyte model, second off rate (avidity). The method, then:
as §1, §2

Assay [11] has as its target T2, CD28 mIg. Nature of the assay: SPR, CD28-mIgG immobilized, bivalent analyte model, first on rate ka (I). How it is done: as §1, §2
Another assay addresses T3, CD28 on Jurkat T cells (UniProt P10747 19-220, limits assumed).
T3 construct: whole, on cells; also called Jurkat cells; Jurkat T cell lines
Nature of the assay: flow cytometry on Jurkat cells. (In general: Flow cytometry measures light scatter and fluorescence of single cells or particles in a stream.)

B1: 2E12 single-chain variable fragment (scFv) (scFv)
scFv: QVQLKESGPGSVAPSQSLSITCTVSGFSLTGYGVNWVRQPPGKGLEWLGMIWGDGSTDYNSALKSRLSITKDNSKSQVFLKMNSLQTDDTARYYCARDGYSNFHYYVMDYWGQGTSVTVSSGGGGSGGGGSGGGGSGGGGSDIVLTQSPASLAVSLGQRATISCRASESVEYYVTSLMQWYQQKPGQPPKLLISAASNVESGVPARFSGSGSGTDFSLNIHPVEEDDIAMYFCQQSRKVPWTFGGGTKLEIK
notes: Any tag on the free scFv used in SPR is not described; also called 2E12 scFv
In general, kon refers to the second-order rate constant of association. Usually koff stands for the first-order rate constant of dissociation. Consider B1, for which, in the assay with CD28 mIg [1], the kon is 348000 M⁻¹ s⁻¹. Besides, the Kd in the assay with CD28 mIg [2] came out at 9.69 nM; in the assay with CD28 mIg [4] it was 39.6 nM. In the assay with CD28 mIg [3], this molecule returned a koff of 0.00338 s⁻¹.

B2: 2E12 monoclonal antibody (mAb) (antibody, V domains shown)
VH: QVQLKESGPGSVAPSQSLSITCTVSGFSLTGYGVNWVRQPPGKGLEWLGMIWGDGSTDYNSALKSRLSITKDNSKSQVFLKMNSLQTDDTARYYCARDGYSNFHYYVMDYWGQGTSVTVSS
VL: DIVLTQSPASLAVSLGQRATISCRASESVEYYVTSLMQWYQQKPGQPPKLLISAASNVESGVPARFSGSGSGTDFSLNIHPVEEDDIAMYFCQQSRKVPWTFGGGTKLEIK
notes: also called 2E12 mAb; 2E12 Mab
Turning to B2, in the assay with CD28 mIg [5], the “fold affinity difference against the 2E12 SMIP” value is 2 fold. In the assay with CD28 mIg [6], the “ka (II)” value came out at 0.00367. In addition, the Kd in the assay with CD28 mIg [7] came out at 11.4 nM; with CD28 mIg [9], 6 nM. The molecule also returned a koff with CD28 mIg [8] of 0.00104 s⁻¹. In the assay with CD28 mIg [10], the “kd (II)” value came to 0.0127 s⁻¹. In the assay with CD28 mIg [11], this molecule had a kon of 176000 M⁻¹ s⁻¹.

B3: Interceptor X0128 (X0120 + X0121) (other)
chain 1: QVQLKESGPGSVAPSQSLSITCTVSGFSLTGYGVNWVRQPPGKGLEWLGMIWGDGSTDYNSALKSRLSITKDNSKSQVFLKMNSLQTDDTARYYCARDGYSNFHYYVMDYWGQGTSVTVSSGGGGSGGGGSGGGGSGGGGSDIVLTQSPASLAVSLGQRATISCRASESVEYYVTSLMQWYQQKPGQPPKLLISAASNVESGVPARFSGSGSGTDFSLNIHPVEEDDIAMYFCQQSRKVPWTFGGGTKLEIKSSSASTKGPSVFPLAPSSKSTSGGTAALGCLVKDYFPEPVTVSWNSGALTSGVHTFPAVLQSSGLYSLSSVVTVPSSSLGTQTYICNVNHKPSNTKVDKKVRTEPKSSDKTHTCPPCPSGAPELLGGPSVFLFPPKPKDTLMISRTPEVTCVVVDVSHEDPEVKFNWYVDGVEVHNAKTKPREEQYNSTYRVVSVLTVLHQDWLNGKEYKCKVSNKALPAPIEKTISKAKGQPREPQVYTLPPSRDELTKNQVSLTCLVKGFYPSDIAVEWESNGQPENNYKTTPPVLDSDGSFFLYSKLTVDKSRWQQGNVFSCSVMHEALHNHYTQKSLSLSPGKSRASTKGPSVFPLAPSSKSTSGGTAALGCLVKDYFPEPVTVSWNSGALTSGVHTFPAVLQSSGLYSLSSVVTVPSSSLGTQTYICNVNHKPSNTKVDKKV
chain 2: TVAAPSVFIFPPSDEQLKSGTASVVCLLNNFYPREAKVQWKVDNALQSGNSQESVTEQDSKDSTYSLSSTLTLSKADYEKHKVYACEVTHQGLSSPVTKSFNRGERTEPKSSDKTHTCPPCPSGAPELLGGPSVFLFPPKPKDTLMISRTPEVTCVVVDVSHEDPEVKFNWYVDGVEVHNAKTKPREEQYNSTYRVVSVLTVLHQDWLNGKEYKCKVSNKALPAPIEKTISKAKGQPREPQVYTLPPSRDELTKNQVSLTCLVKGFYPSDIAVEWESNGQPENNYKTTPPVLDSDGSFFLYSKLTVDKSRWQQGNVFSCSVMHEALHNHYTQKSLSLSPGKSRTVAAPSVFIFPPSDEQLKSGTASVVCLLNNFYPREAKVQWKVDNALQSGNSQESVTEQDSKDSTYSLSSTLTLSKADYEKHKVYACEVTHQGLSSPVTKSFNRGE
B3: the binding result with CD28 on Jurkat T cells is recorded as “binds”.

B4: Interceptor X0132 (X0130 + X0131) (other)
chain 1: QVQLKESGPGSVAPSQSLSITCTVSGFSLTGYGVNWVRQPPGKGLEWLGMIWGDGSTDYNSALKSRLSITKDNSKSQVFLKMNSLQTDDTARYYCARDGYSNFHYYVMDYWGQGTSVTVSSGGGGSGGGGSGGGGSGGGGSDIVLTQSPASLAVSLGQRATISCRASESVEYYVTSLMQWYQQKPGQPPKLLISAASNVESGVPARFSGSGSGTDFSLNIHPVEEDDIAMYFCQQSRKVPWTFGGGTKLEIKSSSASTKGPSVFPLAPSSKSTSGGTAALGCLVKDYFPEPVTVSWNSGALTSGVHTFPAVLQSSGLYSLSSVVTVPSSSLGTQTYICNVNHKPSNTKVDKKVRTEPKSSDKTHTCPPCPSGAPELLGGPSVFLFPPKPKDTLMISRTPEVTCVVVDVSHEDPEVKFNWYVDGVEVHNAKTKPREEQYNSTYRVVSVLTVLHQDWLNGKEYKCKVSNKALPAPIEKTISKAKGQPREPQVYTLPPSRDELTKNQVSLTCLVKGFYPSDIAVEWESNGQPENNYKTTPPVLDSDGSFFLYSKLTVDKSRWQQGNVFSCSVMHEALHNHYTQKSLSLSPGKSRTVAAPSVFIFPPSDEQLKSGTASVVCLLNNFYPREAKVQWKVDNALQSGNSQESVTEQDSKDSTYSLSSTLTLSKADYEKHKVYACEVTHQGLSSPVTKSFNRGE
chain 2: TVAAPSVFIFPPSDEQLKSGTASVVCLLNNFYPREAKVQWKVDNALQSGNSQESVTEQDSKDSTYSLSSTLTLSKADYEKHKVYACEVTHQGLSSPVTKSFNRGERTEPKSSDKTHTCPPCPSGAPELLGGPSVFLFPPKPKDTLMISRTPEVTCVVVDVSHEDPEVKFNWYVDGVEVHNAKTKPREEQYNSTYRVVSVLTVLHQDWLNGKEYKCKVSNKALPAPIEKTISKAKGQPREPQVYTLPPSRDELTKNQVSLTCLVKGFYPSDIAVEWESNGQPENNYKTTPPVLDSDGSFFLYSKLTVDKSRWQQGNVFSCSVMHEALHNHYTQKSLSLSPGKSRASTKGPSVFPLAPSSKSTSGGTAALGCLVKDYFPEPVTVSWNSGALTSGVHTFPAVLQSSGLYSLSSVVTVPSSSLGTQTYICNVNHKPSNTKVDKKV
notes: also called Heterodimer 2 (X0132)
Consider B4, for which the kon with CD28 mIg [1] was determined as 149000 M⁻¹ s⁻¹. For the same molecule, the binding result in the assay with CD28 on Jurkat T cells is given as “binds”. The Kd is 43.7 nM with CD28 mIg [2] and 134 nM with CD28 mIg [4]. This molecule also showed a koff in the assay with CD28 mIg [3] of 0.0065 s⁻¹.

B5: Interceptor X0124 (X0112 + X0113) (other)
chain 1: QVQLKESGPGSVAPSQSLSITCTVSGFSLTGYGVNWVRQPPGKGLEWLGMIWGDGSTDYNSALKSRLSITKDNSKSQVFLKMNSLQTDDTARYYCARDGYSNFHYYVMDYWGQGTSVTVSSGGGGSGGGGSGGGGSGGGGSDIVLTQSPASLAVSLGQRATISCRASESVEYYVTSLMQWYQQKPGQPPKLLISAASNVESGVPARFSGSGSGTDFSLNIHPVEEDDIAMYFCQQSRKVPWTFGGGTKLEIKSSSASTKGPSVFPLAPSSKSTSGGTAALGCLVKDYFPEPVTVSWNSGALTSGVHTFPAVLQSSGLYSLSSVVTVPSSSLGTQTYICNVNHKPSNTKVDKKVRTEPKSSDKTHTCPPCPSGAPELLGGPSVFLFPPKPKDTLMISRTPEVTCVVVDVSHEDPEVKFNWYVDGVEVHNAKTKPREEQYNSTYRVVSVLTVLHQDWLNGKEYKCKVSNKALPAPIEKTISKAKGQPREPQVYTLPPSRDELTKNQVSLTCLVKGFYPSDIAVEWESNGQPENNYKTTPPVLDSDGSFFLYSKLTVDKSRWQQGNVFSCSVMHEALHNHYTQKSLSLSPGK
chain 2: TVAAPSVFIFPPSDEQLKSGTASVVCLLNNFYPREAKVQWKVDNALQSGNSQESVTEQDSKDSTYSLSSTLTLSKADYEKHKVYACEVTHQGLSSPVTKSFNRGERTEPKSSDKTHTCPPCPSGAPELLGGPSVFLFPPKPKDTLMISRTPEVTCVVVDVSHEDPEVKFNWYVDGVEVHNAKTKPREEQYNSTYRVVSVLTVLHQDWLNGKEYKCKVSNKALPAPIEKTISKAKGQPREPQVYTLPPSRDELTKNQVSLTCLVKGFYPSDIAVEWESNGQPENNYKTTPPVLDSDGSFFLYSKLTVDKSRWQQGNVFSCSVMHEALHNHYTQKSLSLSPGK
notes: Monovalent anti-CD28 polypeptide heterodimer; After protein A alone the preparation also holds X0113 homodimer; also called Heterodimer 1 (X0124); X00124
The molecule B5 gave a kon with CD28 mIg [1] of 141000 M⁻¹ s⁻¹. For the same molecule, the results for the Kd with CD28 mIg [2] and in the assay with CD28 mIg [4] were 35.2 nM and 104 nM, respectively. Besides, the koff in the assay with CD28 mIg [3] amounted to 0.00497 s⁻¹.
